According to article PMC6355983, “Structure of the Large Extracellular Loop of FtsX and Its Interaction with the Essential Peptidoglycan Hydrolase PcsB in Streptococcus pneumoniae” (mBio, 2019):

T1: PcsB CC (Streptococcus pneumoniae, UniProt A0A0H2ZQ76)
T1 chain: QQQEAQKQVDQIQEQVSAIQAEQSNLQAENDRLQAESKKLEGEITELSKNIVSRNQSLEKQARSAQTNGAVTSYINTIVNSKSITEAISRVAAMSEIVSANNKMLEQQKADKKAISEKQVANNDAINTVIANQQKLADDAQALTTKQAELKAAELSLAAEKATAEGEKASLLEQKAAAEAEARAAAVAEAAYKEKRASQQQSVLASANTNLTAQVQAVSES

T2: PcsB coiled-coil domain, PscBCC(47–267) (Streptococcus pneumoniae, UniProt A0A0H2US70 47-267)
T2 construct: PcsB peptidoglycan hydrolase, Streptococcus pneumoniae, coiled-coil domain, residues 47 to 267; also called PcsB-CC(47–267); His-PscBCC(47–267); source: E. coli strain derived from BL21(DE3)
T2 sequence (looked up): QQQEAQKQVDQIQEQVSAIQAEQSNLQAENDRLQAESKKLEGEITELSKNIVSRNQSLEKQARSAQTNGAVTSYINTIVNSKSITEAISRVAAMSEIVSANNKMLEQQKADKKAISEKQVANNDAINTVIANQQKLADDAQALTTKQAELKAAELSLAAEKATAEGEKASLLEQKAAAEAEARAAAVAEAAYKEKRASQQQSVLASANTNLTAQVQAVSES


Experiments:
[1] = biological target: T1, PcsB CC; assay: ITC; given as Ka
[2] = biological target: T2, PcsB coiled-coil domain, PscBCC(47–267); assay: ITC; titration of PscBCC with FtsX_(ECL1) (wild type or L115A M119A); 50 mM potassium phosphate, 50 mM NaCl, 0.5 mM EDTA, pH 7.0, 25.0°C; one-site binding model; details: both partners purified

| Binder | Kd [1] | Ka [2] | Kd [2] | dH [2] |
| --- | --- | --- | --- | --- |
| FtsX ECL1 (protein) TAKLATDIENNVRVVVYIRKDVEDNSQTIEKEGQTVTNNDYHKVYDSLKNMSTVKSVTFSSKEEQYEKLTEIMGDNWKIFEGDANPLYDAYIVEANAPNDVKTIAEDAKKIEGVSEVQDGGA | 33.3 µM |  |  |  |
| FtsX large extracellular loop 1 (FtsX_(ECL1)), residues 46 to 168 (domain or fragment, Streptococcus pneumoniae, UniProt Q04LE4 46-168, looked up, FtsX, Streptococcus pneumoniae, large extracellular loop (ECL1), residues 46 to 168; Uniformly 15N-labelled when observed by NMR, unlabelled when added to 15N PcsBCC(47-254) and in ITC; also called wild-type (WT) FtsX_(ECL1); Spn ECL1; source: E. coli strain derived from BL21(DE3); LB or M9 minimal medium with 15NH4Cl) NTAKLATDIENNVRVVVYIRKDVEDNSQTIEKEGQTVTNNDYHKVYDSLKNMSTVKSVTFSSKEEQYEKLTEIMGDNWKIFEGDANPLYDAYIVEANAPNDVKTIAEDAKKIEGVSEVQDGGA |  | 30000 M⁻¹ | 34 ± 6 µM | -2.1 ± 0.2 kcal/mol |
